Assay results: paper PMC12229972 (EJNMMI Radiopharmacy and Chemistry, 2025)

What was measured:
[1] = dynamic PET/CT imaging after cisterna magna infusion; type: in vivo, Sprague–Dawley rats; conditions: rats
[2] = dynamic PET/CT imaging after lumbar infusion; type: in vivo, Sprague–Dawley rats; conditions: rats

Substance: Al[^18F]F-7: aluminum [18F]fluoride restrained complexing agent (RESCA) conjugated rat serum albumin (RSA) reference tracer
- Cmax (maximum SUV), cervical and thoracic (T1-T2) vertebra (spinal canal) ([1]; geometric mean (CV), listed as 7): 4.5(17%) SUV
- tmax, cisterna magna ([1]; median(range)): 20(0) min
- Cmax, intracranial space (ICS) [2]: 0.27 %ID
- tmax, lumbar vertebra L1-L2 ([2]; median(range)): 25(35) min
